The source of these data is article PMC8113518, “JRAB/MICAL-L2 undergoes liquid–liquid phase separation to form tubular recycling endosomes” (Communications Biology, 2021).

This experiment deals with T1, His-GFP-JRAB/MICAL-L2 (mouse, UniProt Q3TN34 1-1009).
T1 construct: JRAB/MICAL-L2, mouse; cDNA encoding JRAB/MICAL-L2 subcloned into pcDNAHisMax-GFP; The plasmid encodes the His6-tag followed by GFP, then the protein's cDNA; source: HEK293, transfected, purified (cOmplete resin, Superdex 200)
The experiment can be described thus: recruitment to liposomes seen by confocal microscopy; purified His-GFP-JRAB/MICAL-L2 and His-mCherry-Rab8ADA (150 nM) mixed with PC:PS (7:3) liposomes in 20 mM HEPES-NaOH pH 7.5, 100 mM KCl, 1 mM DTT. The following applies: both partners purified.

T1 sequence (Q3TN34 whole entry): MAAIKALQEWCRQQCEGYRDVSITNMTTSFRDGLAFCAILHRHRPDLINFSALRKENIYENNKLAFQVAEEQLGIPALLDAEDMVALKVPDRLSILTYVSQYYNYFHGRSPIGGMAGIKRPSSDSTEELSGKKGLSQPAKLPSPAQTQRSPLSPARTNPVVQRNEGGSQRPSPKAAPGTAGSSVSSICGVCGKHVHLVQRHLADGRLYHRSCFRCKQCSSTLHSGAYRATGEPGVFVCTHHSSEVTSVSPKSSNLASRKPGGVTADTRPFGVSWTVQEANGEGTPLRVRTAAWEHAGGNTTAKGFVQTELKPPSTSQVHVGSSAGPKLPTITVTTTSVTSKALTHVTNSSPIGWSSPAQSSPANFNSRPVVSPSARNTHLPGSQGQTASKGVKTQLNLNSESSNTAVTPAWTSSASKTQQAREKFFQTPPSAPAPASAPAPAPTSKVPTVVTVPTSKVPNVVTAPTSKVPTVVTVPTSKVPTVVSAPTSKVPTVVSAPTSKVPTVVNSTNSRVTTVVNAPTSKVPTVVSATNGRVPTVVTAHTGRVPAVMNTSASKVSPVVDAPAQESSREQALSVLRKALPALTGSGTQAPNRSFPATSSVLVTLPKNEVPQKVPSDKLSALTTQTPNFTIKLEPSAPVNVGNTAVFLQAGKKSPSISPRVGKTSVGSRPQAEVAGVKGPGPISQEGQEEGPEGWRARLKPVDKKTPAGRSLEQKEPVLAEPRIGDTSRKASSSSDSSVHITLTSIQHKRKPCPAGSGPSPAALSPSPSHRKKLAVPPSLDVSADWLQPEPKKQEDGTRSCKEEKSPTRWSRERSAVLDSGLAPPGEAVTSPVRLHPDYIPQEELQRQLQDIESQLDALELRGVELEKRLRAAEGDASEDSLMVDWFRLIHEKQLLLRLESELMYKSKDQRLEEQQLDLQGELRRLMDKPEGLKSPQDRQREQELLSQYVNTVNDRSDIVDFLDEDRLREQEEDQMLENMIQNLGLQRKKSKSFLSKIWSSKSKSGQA

B1: His-mCherry-Rab8ADA (natural protein, mouse, UniProt P55258 1-207, looked up)
chain: MAKTYDYLFKLLLIGDSGVGKTCVLFRFSEDAFNSTFISTIGIDFKIRTIELDGKRIKLQIWDTAGLERFRTITTAYYRGAMGIMLVYDITNEKSFDNIRNWIRNIEEHASADVEKMILGNKCDVNDKRQVSKERGEKLALDYGIKFMETSAKANINVENAFFTLARDIKAKMDKKLEGNSPQGSSHGVKITVEQQKRTSFFRCSLL
notes: Rab8A, mouse, dominant-active mutant Q67L; cDNA subcloned into pcDNAHisMax-mCherry; The plasmid encodes the His6-tag followed by mCherry, then the protein's cDNA; Purified from the membrane (pellet) fraction; source: HEK293, transfected, purified from the CHAPS-extracted pellet fraction (Talon resin)
B1: the binding result was “binds”.
